Results on one molecule are retold here after patent CN117567617A.

The experiment has as its target 人CLDN18.2 (human claudin18.2) (human) (UniProt P56856). The experiment in a line: cell-based or functional assay.

B1: 全人源抗CLDN18.2抗体2A2 (CLDN-BC-2A2-hH1) (antibody, V domains shown)
VH: QVQLQQWGPGLVKPSQTLSLTCTVSGGSISSVGYYWSWIRQHPGQGLEWVGYIYYSGGTYYNPSLKSRVTISLDTSKNQFSLKLTSVTAADTAVYYCASYGSVSPYYYYYGMDVWGQGTTVTVSS
VL: DIVMTQSPSSVSASVGDRVTITCRASQGISSWLAWYQQKPGKAPNLLISAASSLQSGVPSRFSGNGSGTDFTLTISSLQPEDFASYYCQQANSFPITFGQGTRLEIK
In turn, B1 registered a CDC活性 EC50 (Presto Blue, complement) of 10.9 µg/mL.
